T1: PDZD2_2, O15018
T1 sequence (O15018 329-429, limits assumed, looked up): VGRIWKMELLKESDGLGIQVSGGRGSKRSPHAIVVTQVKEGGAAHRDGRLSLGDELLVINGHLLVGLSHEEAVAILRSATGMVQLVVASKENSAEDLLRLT

T2: DVL3, Q92997
T2 sequence (Q92997 244-331, limits assumed, looked up): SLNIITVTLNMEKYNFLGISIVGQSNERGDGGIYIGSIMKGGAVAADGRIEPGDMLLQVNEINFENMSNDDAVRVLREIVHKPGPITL

T3: DLG3_1, Q92796
T3 sequence (Q92796 125-227, limits assumed, looked up): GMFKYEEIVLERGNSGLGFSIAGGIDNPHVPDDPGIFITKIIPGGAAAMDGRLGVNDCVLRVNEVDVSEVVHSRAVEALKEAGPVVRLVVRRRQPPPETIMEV

T4: NHERF3_1, Q5T2W1
T4 sequence (Q5T2W1 4-100, limits assumed, looked up): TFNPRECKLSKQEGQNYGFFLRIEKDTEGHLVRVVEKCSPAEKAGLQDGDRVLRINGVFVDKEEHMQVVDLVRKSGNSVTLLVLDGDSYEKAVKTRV

T5: GRIP1_3, Q9Y3R0
T5 sequence (Q9Y3R0 247-346, limits assumed, looked up): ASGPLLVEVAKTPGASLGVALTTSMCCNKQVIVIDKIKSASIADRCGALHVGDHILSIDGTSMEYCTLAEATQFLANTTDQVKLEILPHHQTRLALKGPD

T6: SNTG1, Q9NSN8
T6 sequence (Q9NSN8 52-150, limits assumed, looked up): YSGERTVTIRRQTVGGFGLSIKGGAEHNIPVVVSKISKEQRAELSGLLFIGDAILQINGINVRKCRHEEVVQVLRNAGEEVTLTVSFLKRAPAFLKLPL

T7: GRIP1_4, Q9Y3R0
T7 sequence (Q9Y3R0 467-571, limits assumed, looked up): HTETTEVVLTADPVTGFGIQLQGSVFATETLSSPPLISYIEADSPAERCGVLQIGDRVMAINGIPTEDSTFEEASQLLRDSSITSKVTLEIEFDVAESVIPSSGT

T8: SHANK1, Q9Y566
T8 sequence (Q9Y566 658-767, limits assumed, looked up): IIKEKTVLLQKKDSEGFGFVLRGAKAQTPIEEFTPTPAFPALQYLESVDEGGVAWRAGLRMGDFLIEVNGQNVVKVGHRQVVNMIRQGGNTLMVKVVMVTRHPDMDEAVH

T9: APBA2_2, Q99767
T9 sequence (Q99767 654-744, limits assumed, looked up): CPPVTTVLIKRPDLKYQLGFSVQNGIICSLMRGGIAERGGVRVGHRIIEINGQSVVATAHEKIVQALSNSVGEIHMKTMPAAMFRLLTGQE

B1: NF2, P35240 (peptide)
chain: KSRVAFFEEL
B2: LRP4, O75096 (peptide)
chain: ERKLSSESQV
B3: HPV67-E6, A4U7F2 (peptide)
chain: SRPQRTQTQV
B4: GRASP, Q7Z6J2 (peptide)
chain: RSLEEEESQL
B5: HPV16-E6, P03126 (peptide)
chain: SSRTRRETQL
B6: CYSLTR2, Q9NS75 (peptide)
chain: SVWLRKETRV
B7: MUC3B, MUC3A, Q02505;Q9H195 (peptide)
chain: KRPEMTSSSV

Key:
Experiment in all cases: holdup assay
Design in all cases: key: below the threshold = too weak to quantify, mostly under pKd 3.1 to 4
MAGI1_2, Q96QZ7 = molecular target: MAGI1_2, Q96QZ7
LDB3, O75112 = molecular target: LDB3, O75112
IL16_1, Q14005 = molecular target: IL16_1, Q14005
FRMPD3, Q5JV73 = molecular target: FRMPD3, Q5JV73
NHERF4_2, Q86UT5 = molecular target: NHERF4_2, Q86UT5
PDLIM1, O00151 = molecular target: PDLIM1, O00151
LNX1_1, Q8TBB1 = molecular target: LNX1_1, Q8TBB1
HTRA2, O43464 = molecular target: HTRA2, O43464
GOPC, Q9HD26 = molecular target: GOPC, Q9HD26
PDZD2_2, O15018 = molecular target: T1, PDZD2_2, O15018
DVL3, Q92997 = molecular target: T2, DVL3, Q92997
DLG3_1, Q92796 = molecular target: T3, DLG3_1, Q92796
GRIP2_6, Q9C0E4 = molecular target: GRIP2_6, Q9C0E4
TJP2_1, Q9UDY2 = molecular target: TJP2_1, Q9UDY2
TJP1_2, Q07157 = molecular target: TJP1_2, Q07157
NHERF3_1, Q5T2W1 = molecular target: T4, NHERF3_1, Q5T2W1
GRIP1_3, Q9Y3R0 = molecular target: T5, GRIP1_3, Q9Y3R0; settings: plain residues with an end cap or a label only (N-terminal biotin on a linker: ttds)
SNTG1, Q9NSN8 = molecular target: T6, SNTG1, Q9NSN8; settings: plain residues with an end cap or a label only (N-terminal biotin on a linker: ttds)
GRIP1_4, Q9Y3R0 = molecular target: T7, GRIP1_4, Q9Y3R0
FRMPD2_2, Q68DX3 = molecular target: FRMPD2_2, Q68DX3
Inadl_4, Q8NI35 = settings: plain residues with an end cap or a label only (N-terminal biotin on a linker: ttds)
DLG5_1, Q8TDM6 = molecular target: DLG5_1, Q8TDM6
MAGI2_5, Q86UL8 = molecular target: MAGI2_5, Q86UL8
SHANK1, Q9Y566 = molecular target: T8, SHANK1, Q9Y566; settings: plain residues with an end cap or a label only (N-terminal biotin on a linker: ttds)
HTRA1, Q92743 = settings: plain residues with an end cap or a label only (N-terminal biotin on a linker: ttds)
APBA2_2, Q99767 = molecular target: T9, APBA2_2, Q99767; settings: plain residues with an end cap or a label only (N-terminal biotin on a linker: ttds)
Inadl_2, Q8NI35 = settings: plain residues with an end cap or a label only (N-terminal biotin on a linker: ttds)
GRIP2_7, Q9C0E4 = settings: plain residues with an end cap or a label only (N-terminal biotin on a linker: ttds)
[1] = plain residues with an end cap or a label only (N-terminal biotin on a linker: ado-ado)
[2] = plain residues with an end cap or a label only (N-terminal biotin on a linker: ttds)

MAGI1_2, Q96QZ7, sequence (Q96QZ7 456-580): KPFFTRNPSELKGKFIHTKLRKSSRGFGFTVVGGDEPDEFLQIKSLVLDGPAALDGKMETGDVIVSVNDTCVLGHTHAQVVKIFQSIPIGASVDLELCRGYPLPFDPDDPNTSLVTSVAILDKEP
TJP2_1, Q9UDY2, sequence (Q9UDY2 24-128): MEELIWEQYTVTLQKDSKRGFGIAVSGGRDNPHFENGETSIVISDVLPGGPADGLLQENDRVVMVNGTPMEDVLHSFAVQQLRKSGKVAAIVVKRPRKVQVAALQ
HTRA2, O43464, sequence (O43464 355-458): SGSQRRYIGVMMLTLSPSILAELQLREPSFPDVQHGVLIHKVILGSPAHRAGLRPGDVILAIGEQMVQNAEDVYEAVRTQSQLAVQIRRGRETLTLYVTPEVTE
LDB3, O75112, sequence (O75112 1-94): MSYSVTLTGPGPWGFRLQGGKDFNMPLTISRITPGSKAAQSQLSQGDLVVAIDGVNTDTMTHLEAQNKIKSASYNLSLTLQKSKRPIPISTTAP
GRIP2_6, Q9C0E4, sequence (Q9C0E4 648-740): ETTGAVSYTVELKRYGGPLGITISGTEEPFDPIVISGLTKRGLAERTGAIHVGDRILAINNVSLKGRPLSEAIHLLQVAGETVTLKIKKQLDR
TJP1_2, Q07157, sequence (Q07157 181-274): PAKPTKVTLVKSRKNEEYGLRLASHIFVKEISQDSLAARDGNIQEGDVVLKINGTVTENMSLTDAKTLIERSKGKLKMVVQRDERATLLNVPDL
HTRA1, Q92743, sequence (Q92743 360-477): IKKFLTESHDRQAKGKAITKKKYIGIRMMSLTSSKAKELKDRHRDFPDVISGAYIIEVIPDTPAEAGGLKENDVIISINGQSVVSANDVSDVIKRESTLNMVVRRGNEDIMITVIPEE
PDLIM1, O00151, sequence (O00151 1-87): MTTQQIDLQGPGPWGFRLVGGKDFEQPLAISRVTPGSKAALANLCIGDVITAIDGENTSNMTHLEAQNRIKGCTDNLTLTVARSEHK
GRIP2_7, Q9C0E4, sequence (Q9C0E4 934-1023): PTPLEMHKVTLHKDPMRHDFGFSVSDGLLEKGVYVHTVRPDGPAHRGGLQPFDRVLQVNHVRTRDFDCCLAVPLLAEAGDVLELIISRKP
DLG5_1, Q8TDM6, sequence (Q8TDM6 617-713): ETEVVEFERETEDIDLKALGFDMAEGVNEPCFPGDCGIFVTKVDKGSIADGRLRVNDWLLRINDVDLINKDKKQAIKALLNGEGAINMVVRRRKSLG
MAGI2_5, Q86UL8, sequence (Q86UL8 915-1017): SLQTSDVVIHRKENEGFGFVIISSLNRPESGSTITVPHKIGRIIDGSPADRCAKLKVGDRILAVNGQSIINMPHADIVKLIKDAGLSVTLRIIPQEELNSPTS
NHERF4_2, Q86UT5, sequence (Q86UT5 220-308): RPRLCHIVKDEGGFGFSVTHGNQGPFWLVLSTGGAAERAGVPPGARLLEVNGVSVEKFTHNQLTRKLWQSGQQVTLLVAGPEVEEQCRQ
Inadl_2, Q8NI35, sequence (Q8NI35 238-335): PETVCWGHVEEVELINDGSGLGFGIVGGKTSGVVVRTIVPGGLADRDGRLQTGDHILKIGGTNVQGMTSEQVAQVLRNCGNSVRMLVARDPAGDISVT
FRMPD2_2, Q68DX3, sequence (Q68DX3 944-1038): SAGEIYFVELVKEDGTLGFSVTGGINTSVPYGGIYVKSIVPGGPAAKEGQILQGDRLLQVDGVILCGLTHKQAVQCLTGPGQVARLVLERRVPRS
IL16_1, Q14005, sequence (Q14005 210-306): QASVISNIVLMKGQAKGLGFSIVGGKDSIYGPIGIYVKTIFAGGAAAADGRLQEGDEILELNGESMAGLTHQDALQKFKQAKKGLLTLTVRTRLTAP
Inadl_4, Q8NI35, sequence (Q8NI35 547-651): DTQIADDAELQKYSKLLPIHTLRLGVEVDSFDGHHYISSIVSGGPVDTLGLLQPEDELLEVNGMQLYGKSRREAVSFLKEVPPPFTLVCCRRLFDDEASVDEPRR
LNX1_1, Q8TBB1, sequence (Q8TBB1 261-371): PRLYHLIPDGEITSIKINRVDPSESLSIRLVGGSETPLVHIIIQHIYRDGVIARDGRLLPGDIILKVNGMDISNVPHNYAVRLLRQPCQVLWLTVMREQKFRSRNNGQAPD
FRMPD3, Q5JV73, sequence (Q5JV73 12-100): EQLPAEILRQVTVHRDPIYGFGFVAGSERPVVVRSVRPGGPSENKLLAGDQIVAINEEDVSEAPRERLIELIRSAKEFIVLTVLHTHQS

Row | Binder | pKd (NHERF3_1, Q5T2W1; [2]) | pKd (MAGI1_2, Q96QZ7; [2]) | pKd (LDB3, O75112; [2]) | pKd (GRIP1_3, Q9Y3R0) | pKd (IL16_1, Q14005; [2]) | pKd (SNTG1, Q9NSN8) | pKd (FRMPD3, Q5JV73; [2]) | pKd (NHERF4_2, Q86UT5; [2]) | pKd (GRIP1_4, Q9Y3R0; [2]) | pKd (LNX1_1, Q8TBB1; [2]) | pKd (FRMPD2_2, Q68DX3; [2]) | pKd (HTRA2, O43464; [2]) | pKd (Inadl_4, Q8NI35) | pKd (DLG5_1, Q8TDM6; [2]) | pKd (MAGI2_5, Q86UL8; [2]) | pKd (SHANK1, Q9Y566) | pKd (PDZD2_2, O15018; [2]) | pKd (DVL3, Q92997; [2]) | pKd (DLG3_1, Q92796; [2]) | pKd (HTRA1, Q92743) | also measured
1 | B1 |  |  |  |  |  |  |  |  |  |  |  |  |  |  |  |  |  |  |  |  | pKd (MAGI1_2, Q96QZ7; [1]): 3.53; pKd (LDB3, O75112; [1]): 3.9; pKd (IL16_1, Q14005; [1]): 3.5; pKd (FRMPD3, Q5JV73; [1]): 3.5; pKd (NHERF4_2, Q86UT5; [1]): 3.66; pKd (PDLIM1, O00151; [1]): 3.76; pKd (LNX1_1, Q8TBB1; [1]): 3.73; pKd (HTRA2, O43464; [1]): 3.61; pKd (GOPC, Q9HD26; [1]): 3.63; pKd (PDZD2_2, O15018; [1]): 3.71; pKd (DVL3, Q92997; [1]): 3.49; pKd (DLG3_1, Q92796; [1]): 3.58; pKd (GRIP2_6, Q9C0E4; [1]): 3.77; pKd (TJP2_1, Q9UDY2; [1]): 3.63; pKd (TJP1_2, Q07157; [1]): 3.51
2 | B2 | below the threshold | 4.01 | below the threshold | below the threshold | 3.59 | 4.37 | below the threshold | below the threshold | below the threshold | below the threshold | 3.48 | below the threshold | below the threshold | below the threshold | 4.08 | below the threshold | 4.39 | below the threshold | 3.81 | below the threshold | pKd (PDLIM1, O00151; [2]): below the threshold; pKd (GOPC, Q9HD26; [2]): below the threshold; pKd (GRIP2_6, Q9C0E4; [2]): below the threshold; pKd (TJP2_1, Q9UDY2; [2]): below the threshold; pKd (TJP1_2, Q07157; [2]): below the threshold; pKd (APBA2_2, Q99767): below the threshold; pKd (Inadl_2, Q8NI35): below the threshold; pKd (GRIP2_7, Q9C0E4): below the threshold
3 | B3 | 3.98 | 5.22 | below the threshold | below the threshold | below the threshold | below the threshold | below the threshold | below the threshold | below the threshold | below the threshold | 3.53 | below the threshold | below the threshold | below the threshold | 3.94 | below the threshold | 3.77 | below the threshold | 3.89 | below the threshold | pKd (PDLIM1, O00151; [2]): below the threshold; pKd (GOPC, Q9HD26; [2]): 3.58; pKd (GRIP2_6, Q9C0E4; [2]): below the threshold; pKd (TJP2_1, Q9UDY2; [2]): 3.86; pKd (TJP1_2, Q07157; [2]): below the threshold; pKd (APBA2_2, Q99767): below the threshold; pKd (Inadl_2, Q8NI35): below the threshold; pKd (GRIP2_7, Q9C0E4): below the threshold
4 | B4 | 5.27 | below the threshold | 3.68 | below the threshold | below the threshold | 3.86 | 3.63 | below the threshold | 3.5 | below the threshold | below the threshold | 3.69 | 3.83 | below the threshold | 4.42 | 5.1 | 3.98 | 3.96 | 3.6 | 4.33 | pKd (PDLIM1, O00151; [2]): 3.85; pKd (GOPC, Q9HD26; [2]): 4.01; pKd (GRIP2_6, Q9C0E4; [2]): 3.64; pKd (TJP2_1, Q9UDY2; [2]): 3.65; pKd (TJP1_2, Q07157; [2]): below the threshold; pKd (APBA2_2, Q99767): below the threshold; pKd (Inadl_2, Q8NI35): below the threshold; pKd (GRIP2_7, Q9C0E4): below the threshold
5 | B5 | 5.62 | 5.91 | below the threshold | below the threshold | below the threshold | 3.8 | below the threshold | below the threshold | below the threshold | 3.51 | below the threshold | below the threshold | below the threshold | below the threshold | 3.93 | 3.68 | below the threshold | below the threshold | 3.96 | below the threshold | pKd (GRIP2_6, Q9C0E4; [2]): below the threshold; pKd (TJP2_1, Q9UDY2; [2]): 4.12; pKd (TJP1_2, Q07157; [2]): below the threshold; pKd (APBA2_2, Q99767): below the threshold; pKd (Inadl_2, Q8NI35): below the threshold; pKd (GRIP2_7, Q9C0E4): below the threshold
6 | B6 | 4.8 | 5.63 | below the threshold | below the threshold | 3.92 | 4.43 | below the threshold | below the threshold | below the threshold | 3.59 | 3.6 | 3.5 | below the threshold | below the threshold | 3.93 | 3.51 | 3.8 | below the threshold | 4.41 | below the threshold | pKd (PDLIM1, O00151; [2]): below the threshold; pKd (GOPC, Q9HD26; [2]): 4.27; pKd (GRIP2_6, Q9C0E4; [2]): below the threshold; pKd (TJP2_1, Q9UDY2; [2]): 4.45; pKd (TJP1_2, Q07157; [2]): below the threshold; pKd (APBA2_2, Q99767): below the threshold; pKd (Inadl_2, Q8NI35): below the threshold; pKd (GRIP2_7, Q9C0E4): below the threshold
7 | B7 |  |  |  |  |  |  |  |  |  |  |  |  |  |  |  |  |  |  |  |  | pKd (NHERF3_1, Q5T2W1; [1]): 3.85; pKd (MAGI1_2, Q96QZ7; [1]): below the threshold; pKd (IL16_1, Q14005; [1]): 3.94; pKd (GRIP1_4, Q9Y3R0; [1]): below the threshold; pKd (FRMPD2_2, Q68DX3; [1]): below the threshold; pKd (GOPC, Q9HD26; [1]): 3.96; pKd (DLG5_1, Q8TDM6; [1]): below the threshold; pKd (MAGI2_5, Q86UL8; [1]): 3.82; pKd (PDZD2_2, O15018; [1]): 5.11; pKd (DLG3_1, Q92796; [1]): below the threshold; pKd (TJP1_2, Q07157; [1]): below the threshold
